The values below come from US20110171215A1 (ISIS INNOVATION, published 2011).

Test [1] addresses T1, human PD-1 extracellular region with the transmembrane and intracellular regions of murine CD28, expressed on … (human; mouse, UniProt Q15116 25-170; P31041 151-218, limits assumed).
T1 construct: extracellular domain;domain: transmembrane and intracellular regions; also called human PD-1 transfectants
Kind of test: flow cytometry on transfected HEK 293T cells. As to the method:
(§1) Constructs encoding the human extracellular region of PD-1 with the transmembrane and intracellular regions of murine CD28 were cloned into the bi-cistronic mammalian expression vector pGFP2-n2 from BioSignal Packard Ltd, which also encodes GFP. Mutant constructs varying by one amino acid were prepared using the “drastic” mutagenesis approach (Davis el al. Proc Natl Acad Sci USA. 95, 5490-4 (1998)). Plasmids (2 μg/well) were transfected into HEK-293T cells in 6 well plates using Genejuice transfection reagent (Novagen; 6 μl/well). Mock and no-transfection controls were included with each experiment. Cells were harvested at 18-24 hours and stained with anti-PD1 antibodies or isotype controls at 10 μg/ml in PBS-azide for 1 h at 4° C. Cells were washed with PBS-Azide, pelleted at 1500 rpm/5 min and primary antibodies were labelled with Alexa647-conjugated donkey anti-mouse IgG (5 μg/ml) in PBS-Azide for 30 min at 4° C. Cells were washed as above and resuspended in 200 μl PBS-Azide before being analysed at the flow cytometer. Propidium iodide (5 μg/ml) was added immediately prior to analysis to identify dead cells. GFP-positive (transfected) viable cells were gated and analysed for binding of anti-PD1 antibodies. […]
A general note: A flow cytometer gives signals particle by particle.

The target of test [2] is T2, human PD-1 extracellular region / murine CD28 chimera, mutant L16R, on HEK-293T cells (human; mouse, UniProt Q15116 25-170; P31041 151-218, L16R).
T2 construct: extracellular domain;domain: transmembrane and intracellular regions; Single-residue 'drastic' mutant of m4; constructs elsewhere are counted on the mature polypeptide
T2 sequence (Q15116 other isoform, or with tags, fused parts or gaps L16R | L16R L16R): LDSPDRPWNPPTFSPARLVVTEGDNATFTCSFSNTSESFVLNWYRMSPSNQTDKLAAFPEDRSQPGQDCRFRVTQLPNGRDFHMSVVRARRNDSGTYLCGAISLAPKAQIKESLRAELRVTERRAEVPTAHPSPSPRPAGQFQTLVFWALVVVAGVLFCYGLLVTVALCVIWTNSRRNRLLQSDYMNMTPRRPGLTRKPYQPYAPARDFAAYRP
Kind of test: flow cytometry on transfected HEK-293T cells. As to the method:
as §1

The target of test [3] is T3, human PD-1 extracellular region / murine CD28 chimera, mutant R118D, on HEK-293T cells (human; mouse, UniProt Q15116 25-170; P31041 151-218, R118D).
T3 construct: extracellular domain;domain: transmembrane and intracellular regions; Single-residue 'drastic' mutant of m4
T3 sequence (Q15116 other isoform, or with tags, fused parts or gaps R118D | R118D R118D): as the sequence (Q15116 other isoform, or with tags, fused parts or gaps L16R | L16R L16R) above, with R17L, R119D counted along it
Kind of test: flow cytometry on transfected HEK-293T cells. As to the method: as §1

T1 sequence (Q15116 other isoform, or with tags, fused parts or gaps limits assumed, change not shown): as the sequence (Q15116 other isoform, or with tags, fused parts or gaps L16R | L16R L16R) above, with R17L counted along it

B1: Clone 2 anti-PD-1 antibody (antibody, V domains shown)
VH: QVQLQQPGAELVKPGASVKLSCKASGYTFTTYYLYWVRQRPGQGLEWIGGINPSNGGTNFNEKFKSKATLTVDKSSSTAYMQLNSLTSEDSAVYYCTRRDYRYDRGFDYWGQGTSVTV
VL: DIVLTQSPASLAVSLGQRATISCRASKSVSTSGFNYIHWYQQKPGQPPKLLIYLASNLESGVPARFSGSGSGTDFTLNIHPVEDEDAATYYCQHSRELPLTFGAGTKLEIK
notes: The printed VH ends at ...TV
B1: the binding result in test [1] is reported as “binds”.

B2: Clone 19 anti-PD-1 antibody (antibody, IgG1, V domains shown)
VH: QVQLQQSGAELVKPGASVKMSCKAFGYTFTTYPIEWMKQNHGKSLEWIGNFHPYNDDTKYNEKFKGKAKLTVEKSSTTVYLELSRLTSDDSAVYYCARENYGSHGGFVYWGQGTLVTV
VL: ENVLTQSPAIMSASPGEKVTMTCRASSSVISSYLHWYQQKSGASPKLWIYSTSNLASGVPDRFSGSGSGTSYSLTISSVEAEDAATYYCQQYNGYPLTFGAGTKLEIK
notes: The printed VH ends at ...TV
With B2, the binding result in test [2] and in test [3] was “no binding (tested: 10 µg/ml)” each time.
